Assay results published in patent publication US20050048527, “Endonuclease-substrate complexes” (Third Wave Technologies, Inc., published 2005).
Positions count from the first letter of the chain named.

T1: Pho2M FEN1 (Pyrococcus horikoshii, UniProt O50123 SEQ:1-343)
T1 chain: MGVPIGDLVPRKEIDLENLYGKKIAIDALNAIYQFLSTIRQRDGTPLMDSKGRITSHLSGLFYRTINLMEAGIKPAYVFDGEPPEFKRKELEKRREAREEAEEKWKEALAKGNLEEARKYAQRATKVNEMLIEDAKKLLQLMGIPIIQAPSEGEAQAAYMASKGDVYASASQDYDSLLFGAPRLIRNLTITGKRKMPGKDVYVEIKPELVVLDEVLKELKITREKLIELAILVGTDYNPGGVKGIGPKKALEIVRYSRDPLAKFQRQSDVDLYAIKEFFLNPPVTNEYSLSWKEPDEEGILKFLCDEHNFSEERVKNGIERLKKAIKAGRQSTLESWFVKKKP

T2: Pfu2M FEN1 (Pyrococcus furiosus, UniProt O93634 SEQ:1-340)
T2 chain: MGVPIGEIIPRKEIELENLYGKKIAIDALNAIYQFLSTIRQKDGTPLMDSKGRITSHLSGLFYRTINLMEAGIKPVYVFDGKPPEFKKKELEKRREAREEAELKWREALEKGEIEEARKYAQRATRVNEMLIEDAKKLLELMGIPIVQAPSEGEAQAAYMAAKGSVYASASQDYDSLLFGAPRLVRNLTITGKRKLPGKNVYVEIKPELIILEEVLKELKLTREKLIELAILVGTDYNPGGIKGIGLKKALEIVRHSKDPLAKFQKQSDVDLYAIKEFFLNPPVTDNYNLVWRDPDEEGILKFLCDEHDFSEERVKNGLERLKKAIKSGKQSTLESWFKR

T3: Pfu1M FEN1 (Pyrococcus furiosus, UniProt O93634 SEQ:1-340)
T3 chain: T2 chain with L103E

T4: Mja FEN1 (Methanococcus jannaschii, UniProt Q58839 SEQ:1-326)
T4 sequence: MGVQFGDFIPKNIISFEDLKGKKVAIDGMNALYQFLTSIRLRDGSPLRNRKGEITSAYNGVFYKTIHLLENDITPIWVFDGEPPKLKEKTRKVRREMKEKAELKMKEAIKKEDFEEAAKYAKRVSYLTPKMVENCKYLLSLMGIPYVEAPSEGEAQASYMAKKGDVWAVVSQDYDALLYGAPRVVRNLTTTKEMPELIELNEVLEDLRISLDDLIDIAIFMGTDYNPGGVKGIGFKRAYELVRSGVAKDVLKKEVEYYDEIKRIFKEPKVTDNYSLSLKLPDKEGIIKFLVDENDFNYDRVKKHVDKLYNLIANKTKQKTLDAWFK

T5: Pho1M FEN1 (Pyrococcus horikoshii, UniProt O50123 SEQ:1-343)
T5 chain: T1 chain with E103L

T6: Pfu4M FEN1 (Pyrococcus furiosus, UniProt O93634 SEQ:1-340)
T6 chain: T2 chain with E110A, E113N

B1: X-structure 203-81-2/203-91-2 (structured_DNA)
DNA 1: TTTTCAACTGCTTAGAGAATCTAAGCAGTTGGTGCGCCTCGTTAA
DNA 2: AACGAGGCGCACATT
modifications: 3'-NH2 on first strand
B2: INVADER substrate 594-12-1/203-91-1 (structured_DNA)
DNA 1: TTTTTCACGGCAGTTGGTGCGCCTCGGAACGAGGCGCACA
DNA 2: TTTTCAACTGCCGTGA

Assays:
Test in all cases: cleavage_in_vitro; rate vs Pfu FEN1
Pho2M FEN1 = target: T1, Pho2M FEN1
Experimental: (§1) For the evaluation of chimeric enzymes, standard tests were performed to measure the performance and specificity of the enzymes. […] 10 μl reactions are run at 59 C for between 5 to 60 minutes depending on the enzyme. Reactions are stopped by the addition of 10 μl of 95% formamide, 0.02% methyl violet. 1 μl of the mixture is run on a denaturing 20% acrylamide gel and electrophoresed for 15 minutes or until good separation is achieved between cleaved and uncleaved probe. The gels are scanned using an FMBIO fluorescent gel scanner and the bands are quantified with FMBIOAnalysis software. Cleavage rates are determined from the percent probe cleaved. Cleavage rate for the INVADER substrate is defined as the number of probe molecules cleaved per target molecule per minute. In Table 5, below, the cleavage rates for the mutant enzymes are compared to the cleavage rates for unmodified Pfu FEN1 enzyme on the INVADER assay and X-structure substrates.
(§2) The X-structure substrate is used to determine the amount of background cleavage an enzyme will carry out in an INVADER reaction. It mimics the structure created by uncut primary probe and secondary FRET cassette in the INVADER squared reaction. […] 10 μl reactions are run at 59 C for between 3 to 30 minutes depending on the enzyme. Reactions are stopped by the addition of 10 μl of 95% formamide, 0.02% methyl violet. 1 μl of the mixture is run on a denaturing 20% acrylamide gel and electophoresed for 15 minutes or until good separation is achieved between cleaved and uncleaved probe. The gels are scanned using an FMBIO fluorescent gel scanner and the bands are quantified with FMBIOAnalysis software. Cleavage rates are determined from the percent probe cleaved.

Pfu2M FEN1 = target: T2, Pfu2M FEN1
Experimental: as §1, §2

Pfu1M FEN1 = target: T3, Pfu1M FEN1
Experimental: as §1, §2

Mja FEN1 = target: T4, Mja FEN1
Experimental: as §1, §2

Pho1M FEN1 = target: T5, Pho1M FEN1
Experimental: as §1, §2

Pfu4M FEN1 = target: T6, Pfu4M FEN1
Experimental: as §1, §2

[1] = label: 5'-biotin target, 5'-TET probe, hairpin target-INVADER with overlapping probe flap

Binder	cleavage rate (Pho2M FEN1; label: 5'-TET, X-structure)	cleavage rate (Pfu2M FEN1; label: 5'-TET, X-structure)	cleavage rate (Pfu1M FEN1; label: 5'-TET, X-structure)	cleavage rate (Mja FEN1; label: 5'-TET, X-structure)	cleavage rate (Pho1M FEN1; label: 5'-TET, X-structure)	cleavage rate (Pfu4M FEN1; label: 5'-TET, X-structure)	cleavage rate (Pho2M FEN1; [1])	cleavage rate (Pfu2M FEN1; [1])	cleavage rate (Pfu1M FEN1; [1])	cleavage rate (Mja FEN1; [1])	cleavage rate (Pho1M FEN1; [1])	cleavage rate (Pfu4M FEN1; [1])
B1	31	3	0.85	203	18	62	–	–	–	–	–	–
B2	–	–	–	–	–	–	1.6	1.4	0.83	1.9	1.1	2.2
